Source: US20250269046A1, “CELLULAR UPTAKE OF LARGE BIOMOLECULES ENABLED BY CELL-SURFACE-REACTIVE CELL-PENETRATING PEPTIDE ADDITIVES” (FORSCHUNGSVERBUND BERLIN E.V., priority 2021, published 2025)

What was measured:
[1] = biological target: Lifeact-mVenus (GFP mutant, expressed in transfected HeLa CCL-2 cells); assay: confocal microscopy of live HeLa CCL-2 cells transfected with Lifeact-mVenus after delivery of 500 nM antibody with TNB-R10; colocalization of antibody and mVenus signals
[2] = biological target: endogenous mitochondrial receptor TOMM20 (in HeLa CCL-2 cells) (UniProt Q15388); assay: cell-based or functional assay
endogenous mitochondrial receptor TOMM20 (in HeLa CCL-2 cells), sequence (Q15388 whole entry): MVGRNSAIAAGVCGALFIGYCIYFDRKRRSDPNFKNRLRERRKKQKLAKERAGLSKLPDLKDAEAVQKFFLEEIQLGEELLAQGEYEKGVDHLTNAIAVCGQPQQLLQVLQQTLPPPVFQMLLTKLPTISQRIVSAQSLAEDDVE

pearson correlation coefficient (PCC) of colocalization [1] | pearson correlation coefficient (PCC) of the colocalization of the delivered antibody with the mitochondrial marker MitoTracker Red CMXRos [2] | Substance
0.8 | – | Alexa Fluor 594 anti-GFP Antibody, Clone 1GFP63
– | 0.58 | Anti-Tom20/Tomm20, clone 2F8.1 (antibody)
